The source of these data is a protein production outcome set (Wang et al. 2014).

The data set in a line: label from the status in PepcDB records.
With “TSLEEITKAIMADSQNKVFTEKNIEPLFAAPKTARINIVGQAPGIKAQESRLYWNDKSGDRLREWMGVDYDTFYHSGYFAVIPMDFYYPGKGKSGDLPPRKGFAQKWHQPILDLLPDIQLTILIGNYAQKYYLHQKSSVKLTDTVAHYKKYLPDYFPLVHPSPRNQIWMSRHPWFEAQVVPDLKKIIQQIIQSS”, the protein production result is listed as “not failed”. For the sequence “TSSLHPTRGKLLKRFAQIGPYIREQQCQESQFFFDCLAVCVNKKVTPEKREFWGWWMELERNGEQLIYYYQVGLFDKNGDWVNQVISKKDVIESIHETLIRFHDFLQAAVSELEMTLVPDEKMSNFPLPL”, the protein production result is given as “not failed”. The value for “TSSLQGNLLISVPRDFGLLFIAPNLPTFMAKHPHLHIEVEFNDKKIDLLSEGYDLALRIGYMEDSSLVSRKIGTTTVHFAASPNYLETNGIPQTPDDLEHHNGLLYKNAMNQVNWVGSRINQTQRFKIQSKVVSNSGFALL” was “failed”; that for “TSTFYELFPKTFPKKLPIWTIDQSRLRKEYRQLQAQHHPDMAQQGSEQSSTLNQAYHTLKDPLRRSQYMLKLLRNIDLTQEQTSNEVTTSDPQLLLKVLDIHDELSQMDDEAGVKLLEKQNKERIQDIEAQLGQCYNDKDYAAAVKLTVELKYWYNLAKAFKDWAPGKQLEMNH” was “not failed”; that for “TSTMGNLQTAINDKSGTLASQNFLDADEQKRNAYNQAVSAAETILNKQTGPNTAKTAVEQALNNVNNAKHALNGTQNLNNAKQAAITAINGASDLNQKQKDALKAQANGAQRVSNAQDVQHNATELNTA” was “not failed”.

In the case of “TTLQVREQTARRTLAALGYNECVTYSFIDEAAARLFGGGSEAVRVENPISSEMTHLRPDLLPGLLRAAARNQARGFADIALCEIGPVFAGGEPGEQQLQATGLLVGAVAPRDPFGSRRPVDVYDAKADAEAVLAAVGAPARMQISRKVPGWWHPGRSGIVGLGPNVLATFGEVHPRILREMDVKGPAVAFTVLVANVPLPKVKTPTRPALKL”, the protein production result is given as “failed”. Consider “TVVRYNPDNHADESFAARPALLWVHGMTDYFFHTEFAEFFHNAGFAVYGIDLRKCGRSYRPGQQWHYTSDLAHYFPDLTAAAEVISSTHPELVPVAHSTGGLIVPLWMSQMRTSNPAAIEKIPALVLNSPWLDMMYPPLFIKLITPMVRVLGKRSPTTIIPGGGLGAYGKSIHKNFYGEWDFDTTIKPVEGHKKSIGWLRAVMAGQAEIHHDHVNVGVDVLTLCSNKSWLKSEYTEDTNTSDAVLDVKHIQKWAPHLSSPSSRVDVEIIDNARHDIFLSRKPARDHASEVLNNWLQSK”, for which the protein production result was “failed”. The value for “TYHRLALQRENASLNPVGQMVAVNGYKISVFVKGQGSQTLVFLSGAGTASPILDFKDVYDGFSKEYKIVVVERADYGYSEDTSKSRDVSVILSETRQSLAKSQVSGPYIILSHSMASLETLLWQENYPSEVKAVVCLDWAFPESYFQLKRHPQMLRLARWESQLGLLRLLPRQLYMPNENLSDSDRRLYQEIAYRQLLSQAMLNESLCAKENDKKVNSTSIKSQMPVLLMVSNGKGTGFGQEQWRHYATSFAKGQKNMEVTYYDSPHYFYHYQTKEMIRSIEEFVQE” was “failed”.

For “VALAATRAFYWIEAQSPDAATAFAQRVFDLYFSDRLDTASPEAVSRLGPEVGLEPEALLAGIADPALKETVRKIGEDAVARGIFGSPFFLVDDEPFWGWDRMEMMAEWIRTGGW”, the protein production result was “failed”. Regarding “VDDTVNVANEYSRYPLENYQLDFYVDNSWGWLPWNWSDGIGKQVMYGLYAITNFIWTISLYVSNATGYLVQEAYSLDFISATADSIGKNMQTLAGVTPSGLSTEGFYVGFLLLLILVLGVYVVYTGLIKRETTKAIHAIVNFVMVFILSASFIAYAPDYIKKIN”, the protein production entry is “failed”. Regarding “VDIMLNTADISAAAILLPVEGAQLSELRQIPAEGGPVLHMLRLDSPQFSQFGEIYFSEVLPRRVKAWKRHSLMTQLFAVPVGCIHVVLYDGREKSPTSGRLAQVTLGRPDNYRLLRIPPQVWYGFAATGDTPALVANCTDIPHRQGESERAPQDAPFIPFSWAGADLSGTPVM”, the protein production entry is “not failed”. The value for “VEASFCLGDNWQFLYVNDATCRMTEYSREQLLSMNLQDIDVDFALHDWEEIRQKNNYTFKTRYRSQSGRIFLVEMSLTFLEDQERRFSCVFVREKS” was “failed”; that for “VELPTEYTEQFSSQPTLNSKPIIKFEFTGNSVDAPVLSMASKKFGIDFSILMSQIDYAGGVKFGFVIAEVEGDGEAITAAKCYLINNNVKVEVLGYVG” was “failed”; that for “VEPQSQALLHAQPIISIRVWGVGRDSGRERDFAYVARDKLTQMLKCHVFRCEAPAKNIATSLHEICSKIMAERRNARCLVNGLSLDHSKLVDVPFQVEFPAPKNELVQKFQVYYLGNVPVAKPVGVDVINGALESVLSSSSREQWTPSHVSVAPATLTILHQQTEAVLGECRVRFLSFLAVGRDVHTFAFIMAAGPASFCCHMFWCEPNAASLSEAVQAACMLRYQKCLDARSQASTSCLPAPPAESVARRVGWTVRRGVQSLWGSLKPKRLGAHTP” was “failed”. The value for “VFADKLDITVDQKKIILPYWLSRPVSYGAVIIVSGGETAQWSLLLEQFAKGLARNGWSVVLLNCTKNNSIPWINQLPEVISTLRQNNNKRIVLVHYGDQLNLALEYFSKPQSKMINGLVMLSAYDLNRNLQKVPRLRFPLFDIVGQFDYDMVRQQRKSREEKFKENSYLAIDIPGATHDYQYSQQLLLAFVHGWM” was “not failed”. To “VFSSEDITETSPDKWLIDGDTPLDEVERAIGYELPEGDYETISGLLFDHANALLKTGDVIEIPLDFEPEDYLNNTSPTQRILRITVLEVERNVPVKLALALLE” belongs “not failed”; to “VFVGRCTGDMTEDELREFFSQYGDVMDVFIPKPFRAFAFVTFADDQIAQSLCGEDLIIKGISVHISNAEPKHNSN”, “not failed”; to “VGQRSDSDHVMAEATTDKRQGHTRGRTGNDRRTQIIKVATELFREKGYYATSLDDIADRIGFTKPAIYYYFKSKEDVLFAIVNSIVDEALERFHAIAAGPGSPGERIHALLVEHTRTILRNLDANTLFYNERGLLSPEREREMRKREREYTEIMQRLYAEGVATGELLDVDPTVATATLLGAAIWTYRWYDPEGRLSADEVVEQITRLLLNGYRRPA”, “not failed”. On to “VGRLDDLKRSPLFQNVPEDAMREALKVVTERNFQPDELVVEQDAEGEALHLVTTGVVRVSRVSLGGRERVLGDIYAPGVVGETAVLAHQERSASVRALTPVRTLMLHREHFELILRRHPRVLWNLAEMLARRVTFLNDELIAFGQNTEAALTHVFANLYRQRLAAGVPQPEVLPLGTQDIMARTSSSRETVSRVLKRLEAHNILEVSPRSVTLLDLAALEALSFEGAETD”, for which the protein production entry is “not failed”. To “VILKKIFIALIALVVIINTVSFTAVSASTPTWLEQTMNSNEPFIKEIEKETGKTRANITQTDLEAITALRVTGASDIPTNIDMLTHLTTLEVKSGTLSSVSNSVGNLKELKILVLNDNNLSTFPTIVFQLPKLEELQVSGGTIEEIPATITNMASHLKFLGILNNHLVKVPDAIFTTNWTNATGGDLDLMAAGNQIVTNIPANYISQFNNGNNLLEFYDNNYQKQDQLTTTPGYTIDVPVGTDFNQLTPDKTKLALTSGRTLLAQHEFEYYDDGSSSLIHNGVAAAPGQATIFIKSKFSTQSNKFARTQVTVNIIALNGGPITVKHEDTKGQELAPPVILNGKDGDPYTTTQKTFPGYTLVATPANQNGTFTMNPATVNYVYSANDYKLTSTFKDAQGQELKAPVVDTKDYHIQDNYTTTAATIPGYSLVSTPANQNGTFGAGNVTVNYVYKKDDYTLTSTYKDTNGQELKAPVVDATTYHYQDTYTTTAAVFPGYTLVATPTNATGTFGSSNITVNYVYQANGYQLTSTFKDQQGKTIAPDDVDAKTYHVNDPYTTTAKTIPGYTLVTTPANNQGNFGTSDITVDYVYKAEDYTLTSTYKDAQGKELKQPVVDSKKYHIQDNYSTSAAAIPGYTLVATPANETGTFHTSDVTVNYVYKLTDLKLTSTYKDAQGTELKAPVVDSKTYHIQDNYATTAAVIPGYTLVATPANQSGTFGSTDIQVNYVYQAVAYKLTSTYKDQQGNDLALPKVDTKTYHIQDGYTTSDIAIPGYTLVAAPTNQTGTFGASDVTVNYVYKANDYTLTSTYKDAQGKELKTPVIDSQKYHINDTYTTTGATIPGYTLVAAPANQSGTFGAANVTVNYVYKADDYTLTSTYKDANGKELKAPVVDSKTYHTKDNYSTSAATIPGYTLVAVPANQTGTFNTSNVTVNYVYKANEYTLTSTFKNVQGTELKPAIVKKGFIIKDGYATSGVTIPGYTLVATPSNKKGTFGASNVTVNYVYKANGYALITTYKDTQGKDLKPLAIDTKIYNINDPYTATALNIPGYTLTTTPANEKGVFGASDETVNYVYKANDYTLTTTYKDANGKELQAPKVDAKTYHIQDTYKTTAAVIPGYTLVATPKNDQGAFGANNVTVNYVYQTNDYTLTSTFKDAQGNELKAADVDAQKYHIHDTYTSKAAVIPGYTLEKTPTNETGTFNASDIQVNYVYKANDYQLTSTFKDQQGNEIALPTVDAKTYHIHDAYTTKARLIPGYSLVAAPKNQIGAFGTSDVTVNYVYKKDAIIKPITPAKPTILTIKTPASKVIKTKVVKQTLPKTGDDDAGLLNLLRLIGLVLILGVFLAVGSKKLR” belongs “failed”; to “VLKQGYMMKKGHRRKNWTERWFVLKPNIISYYVSEDLKDKKGDILLDENCCVESLPDKDGKKCLFLVKCFDKTFEISASDKKKKQEWIQAIHSTIHLLKLGS”, “not failed”; to “VLMDEGAVLTLAADLSSATLDISKQWSNVFNILRENDFEPKFLCEVKLAFKCDGEIKTFSDLQSLRKFASQKSSMKELLKDVLPQKE”, “not failed”. Turning to “VLYYKDFKIGLGKNQKENIKLLQDARANDLWMHVRNIPGSHLIVFCQKNAPKDDVIMELAKMLIKMQKDAFNSYEIDYTQRKFVKIIKGANVIYSKYRTISLKDT”, the protein production result is recorded as “failed”. The value for “VMVFISSSLNSFRSEKRYSRSLTIAEFKCKLELVVGSPASCMELELYGADDKFYSKLDQEDALLGSYPVDDGCSIHVIDHSG” was “not failed”.

“VNEIVVNPNATLDWQLALRQAAGKTDLARDMLQMLLDFLPEVRNKVEEQLVGENPEGLVDLIHKLHGSCGYSGVPRMKNLCQLIEQQLRSGTKEEDLEPELLELLDEMDNVAREASKILG”: the protein production entry is on record as “not failed”. Regarding “VNELLHLAPNVWPRNTTRDEVGVVCIAGIPLTQLAQEYGTPLFVIDEDDFRSRCRETAAAFGSGANVHYAAKAFLCSEVARWISEEGLCLDVCTGGELAVALHASFPPERITLHGNNKSVSELTAAVKAGVGHIVVDSMTEIERLDAIAGEAGIVQDVLVRLTVGVEAHTHEFISTAHEDQKFGLSVASGAAMAAVRRVFATDHLRLVGLHSHIGSQIFDVDGFELAAHRVIGLLRDVVGEFGPEKTAQIATVDLGGGLGISYLPSDDPPPIAELAAKLGTIVSDESTAVGLPTPKLVVEPGRAIAGPGTITLYEVGTVKDVDVSATAHRRYVSVDGGMSDNIRTALYGAQYDVRLVSRVSDAPPVPARLVGKHCESGDIIVRDTWVPDDIRPGDLVAVAATGAYCYSLSSRYNMVGRPAVVAVHAGNARLVLRRETVDDLLSLEVR”, the protein production result was “not failed”. Regarding “VNFEVKDQTLMMELVPERLRGETATFDIEADGKVYVEKGRRVTARHIRQLEKDGVNFIEVPVEYIVGKVSAKDYVNEATGELIITANQEISLEALANLSQAG”, the protein production result was “not failed”.

As to “VNNTKVTNSEESLSVVDDFVKSVWPTAKQAASLIGLDPKLLVAQAALETGWGRFVTRDADGSSSNNLFNIKTGSHSEVESIQVKTTEYIADTPIKINASFRKYPSIEHSFHDYVSLIKGSERYQMALANAENPEIFVSELNKAGYATDPNYSNKILSIYHGDE”, the protein production result was “failed”.
